The subject of this data set is Escherichia coli TOP10. As to the kind of experiment: shrunken log2 fold change of peptide-encoding DNA abundance (4.5 h post-induction vs induction); higher = less antimicrobial activity (less host growth inhibition). Particulars: time post-induction: 4.5 h; library: site-saturation at positions 5, 18, 19, 20.
As to RRIRPRPPRLPRPRPRPYCTPRP, the “shrunken log2 fold change” value came to 0.164. RRIRTRPPRLPRPRPRPTYNPRP: the “shrunken log2 fold change” value is -0.593. The same measure for RRIRQRPPRLPRPRPRPREHPRP: -0.117. The same measure for RRIRERPPRLPRPRPRPVALPRP: -0.377; for RRIRMRPPRLPRPRPRPWNQPRP: -0.0405. The same measure for RRIRWRPPRLPRPRPRPSEIPRP: -0.178; for RRIRFRPPRLPRPRPRPDDQPRP: -0.151; for RRIRGRPPRLPRPRPRPWSSPRP: -0.0552. Turning to RRIRPRPPRLPRPRPRPECGPRP, the “shrunken log2 fold change” value was 0.525.

On to RRIRTRPPRLPRPRPRPNKNPRP, for which the “shrunken log2 fold change” value is -0.156. The same measure for RRIRCRPPRLPRPRPRPPHAPRP: 1.04; for RRIRVRPPRLPRPRPRPLFDPRP: -0.172; for RRIRPRPPRLPRPRPRPLIVPRP: -0.406. The same measure for RRIRHRPPRLPRPRPRPHAHPRP: -0.072. In the case of RRIRPRPPRLPRPRPRPFSVPRP, the “shrunken log2 fold change” value was -0.0603. The same measure for RRIRRRPPRLPRPRPRPCSDPRP: 0.00368; for RRIRWRPPRLPRPRPRPDDIPRP: -0.163; for RRIRDRPPRLPRPRPRPSIKPRP: -0.491. The same measure for RRIRTRPPRLPRPRPRPVQMPRP: 0.000776; for RRIRMRPPRLPRPRPRPAYQPRP: -0.233.

For RRIRQRPPRLPRPRPRPPSWPRP, the “shrunken log2 fold change” value was found to be 0.581.

On to RRIRTRPPRLPRPRPRPMGQPRP, for which the “shrunken log2 fold change” value came to 0.103. The same measure for RRIRPRPPRLPRPRPRPFSAPRP: 0.0672; for RRIRMRPPRLPRPRPRPIVFPRP: 0.038. Regarding RRIRMRPPRLPRPRPRPKEAPRP, the “shrunken log2 fold change” value is -0.00711. The same measure for RRIRIRPPRLPRPRPRPTECPRP: 0.00877.

On to RRIRDRPPRLPRPRPRPNMDPRP, for which the “shrunken log2 fold change” value was -0.491. Regarding RRIRNRPPRLPRPRPRPSQDPRP, the “shrunken log2 fold change” value is -0.102. On to RRIRKRPPRLPRPRPRPDVLPRP, for which the “shrunken log2 fold change” value came out at 0.0156. The same measure for RRIRPRPPRLPRPRPRPTINPRP: -0.51; for RRIRARPPRLPRPRPRPDWAPRP: 0.524. The same measure for RRIRWRPPRLPRPRPRPLEDPRP: 0.047; for RRIRWRPPRLPRPRPRPCCNPRP: -0.0508. The same measure for RRIRGRPPRLPRPRPRPAIIPRP: 0.134; for RRIRQRPPRLPRPRPRPANDPRP: -0.103; for RRIRKRPPRLPRPRPRPHPQPRP: 0.223. Regarding RRIRCRPPRLPRPRPRPNPGPRP, the “shrunken log2 fold change” value is -0.0632.

Take RRIRDRPPRLPRPRPRPPGRPRP: the “shrunken log2 fold change” value was found to be 0.104. The same measure for RRIRWRPPRLPRPRPRPCLDPRP: -0.0586; for RRIRARPPRLPRPRPRPIQRPRP: 0.112; for RRIRDRPPRLPRPRPRPYYYPRP: -1.11.

RRIRARPPRLPRPRPRPDQHPRP: the “shrunken log2 fold change” value was 0.0116.

Take RRIRNRPPRLPRPRPRPTKNPRP: the “shrunken log2 fold change” value is -0.0348. Regarding RRIRARPPRLPRPRPRPGYMPRP, the “shrunken log2 fold change” value was -0.21. The same measure for RRIRFRPPRLPRPRPRPRYNPRP: -0.323. Take RRIRPRPPRLPRPRPRPWLCPRP: the “shrunken log2 fold change” value was 0.106. The same measure for RRIRERPPRLPRPRPRPPQAPRP: 0.154. As for RRIRMRPPRLPRPRPRPAMTPRP, the “shrunken log2 fold change” value came to 1.35. On to RRIRGRPPRLPRPRPRPYCRPRP, for which the “shrunken log2 fold change” value is -0.237.

As for RRIRTRPPRLPRPRPRPHDLPRP, the “shrunken log2 fold change” value is -0.0128.

The values above are taken from the supplement of paper PMC9112550, “Optimization of the antimicrobial peptide Bac7 by deep mutational scanning” (BMC Biology, 2022).
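Also: peptides expressed intracellularly from a pBAD plasmid library in pooled LB shake-flask culture, induced with 0.3% L-arabinose, DNA abundance read by NGS, three biological replicates, DESeq2 with apeglm shrinkage.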
